Measurements as given in patent US20090068195A1.

Experiments:
[1] = target: native human IL-13 (human) (UniProt P35225); test: cell-based or functional assay
[2] = target: non-human primate (cynomolgus monkey) IL-13 (cynomolgus monkey); test: cell-based or functional assay
non-human primate (cynomolgus monkey) IL-13 (cynomolgus monkey), sequence (Q5I6E4 other isoform, or with tags, fused parts or gaps limits assumed): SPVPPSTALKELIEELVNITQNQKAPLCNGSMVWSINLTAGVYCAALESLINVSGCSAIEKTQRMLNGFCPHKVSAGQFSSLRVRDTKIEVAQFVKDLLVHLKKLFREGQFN

native human IL-13 (human), sequence (P35225 other isoform, or with tags, fused parts or gaps limits assumed): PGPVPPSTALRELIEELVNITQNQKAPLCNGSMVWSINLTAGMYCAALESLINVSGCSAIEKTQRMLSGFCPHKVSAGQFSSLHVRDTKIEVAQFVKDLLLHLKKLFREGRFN

B1: antibody with the murine heavy chain of MJ2-7 and a humanized light chain (antibody, part only; not given: humanized light chain, V domains shown, part only)
VH: EVQLQQSGAELVKPGASVKLSCTGSGFNIKDTYIHWVKQRPEQGLEWIGRIDPANDNIKYDPKFQGKATITADTSSNTAYLQLNSLTSEDTAVYYCARSEENWYDFFDYWGQGTTLTVSS
[1]
  STAT6 phosphorylation, IC50: 0.554 nM
[2]
  CD23 expression, IC50: 0.308 nM
